Test results taken from article PMC6143168 (Nature genetics, 2018).

Target: T1, EsxW wildtype (2Thr) (Mycobacterium tuberculosis H37Rv, UniProt P9WNI3 1-98)
T1 sequence: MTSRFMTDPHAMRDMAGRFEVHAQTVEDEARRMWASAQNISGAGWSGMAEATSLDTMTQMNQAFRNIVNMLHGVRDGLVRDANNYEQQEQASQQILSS
Assay: MST

B1: EsxV (natural protein)
chain: MTINYQFGDVDAHGAMIRAQAGSLEAEHQAIISDVLTASDFWGGAGSAACQGFITQLGRNFQVIYEQANAHGQKVQAAGNNMAQTDSAVGSSWA
Kd: 600 nM
